According to US8796227B2, “Peptides for inhibiting chemokine binding to chemokine receptors” (Biokine Therapeutics Ltd., priority 2002, dated 2014):
Entries after “also recorded” stand apart in the source; their conditions may differ.

Tests used:
MIG = biological target: T1, MIG (Homo sapiens, UniProt Q07325); assay: Biovalidation: laminar flow assay, chemokine and VCAM-1 activated adhesion of T cells; type: cell-based; details: T cell adhesion under flow, VCAM-1
T1 construct: purchased PeproTech, Inc. 300-26
T1 sequence (Q07325 23-125): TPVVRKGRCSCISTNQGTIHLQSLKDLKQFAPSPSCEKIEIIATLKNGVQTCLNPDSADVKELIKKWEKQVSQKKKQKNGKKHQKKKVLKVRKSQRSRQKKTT
Procedure: (§1) 50 ml blood was added to 10 ml Dextran (Dextran T-500 6% w/v) in PBS (phosphate buffer saline), and 7 ml citrate buffer (25 g citrate, 8 g citric acid in 500 ml PBS). The solution was incubated for 30 min at 25° C. 10 ml Ficoll 1077 (Sigma) was added to the bottom of the tube. The tube was then centrifuged at 2,000 rpm for 30 min, at 18° C., (with the brake mode of the centrifuge off). The interphase was collected and washed twice with 8 ml PBS-5% FCS (fetal calf serum), followed by centrifugation at 1,400 rpm, for 5 min, at 18° C. The cells were re-suspended in PBS-5% FCS at a concentration less than 10^8/ml. 2 ml of the cell solution were applied and incubated for 45 min at 25° C. on a Perspex Nylon wool column, which was pre-soaked with PBS-5% FCS. Each column was washed with 8 ml PBS-5% FCS and the cells (T-cells and erythrocytes) were eluted by 50 ml of 5 mM EDTA in PBS. A red pellet was obtained by centrifugation at 1,400 rpm, at 4° C., for 5 min, with the brake on. In order to perform lysis of the erythrocytes, the red pellet was re-suspended in 5 ml lysis-buffer (155 mM NH4Cl, 10 mM KHCO3, 0.1 mM EDTA, X0.1PBS) for 4 min, followed by immediate addition of 50 ml of PBS-EDTA.
(§2) Following centrifugation at 1,400 rpm, at 4° C., for 5 min with brake on, the pellet was washed again with 50 ml PBS-EDTA and re-centrifuged under the same conditions. A white pellet was obtained and re-suspended in RPMI/10% FCS/L-glutamine/sodium pyruvate/antibiotics at a concentration of 3^X10^6 cells/ml. The cells were incubated for 2 h at 37° C., followed by collection of the non-adherent cells. The cells were ready for use in experiments after overnight incubation at 37° C. […]
Laminar flow assays were performed as follows. Polystyrene plates (B.D) were coated with soluble VCAM-1 at 10 μg/ml in the presence of 2 μg/ml HSA carrier. The plates were washed three times with PBS and blocked with HSA (20 μg/ml in PBS) for 2 hrs at room temperature. Alternatively, washed plates were coated with 10 μg/ml MIG chemokine in PBS for 30 min at room temperature, before being blocked with HSA. The plates were assembled as the lower wall of a parallel wall flow chamber and mounted on the stage of an inverted microscope. The peptide, as described previously, (10 μg/ml) was allowed to settle on the substrate coated chamber wall for 10 min, at 37° C. and then washed. T cells (5×10^6/ml, purity >98%) were suspended in binding buffer, perfused into the chamber and allowed to settle on the substrate coated chamber wall for 1 min, at 37° C. Flow was initiated and increased in 2 to 2.5 fold increments every 5 sec. generating controlled shear stresses on the wall. Cells were visualized in a 20× objective of an inverted phase-contrast Diaphot Microscope (Nikon, Japan) and photographed with a long integration LIS-700 CCD video camera (Applitech; Holon, Israel), connected to a video recorder (AG-6730 S-VHS, Panasonic, Japan). The number of adherent cells resisting detachment by the elevated shear forces was determined after each interval by analysis of videotaped cell images, and was expressed as the percent of originally settled cells. All adhesion experiments were performed at least three times on multiple test fields.

IL-8 = biological target: T2, IL-8 (Homo sapiens, UniProt P10145); assay: as above; type: cell-based; set-up: key to Level of Antagonistic Effect / Level of Effect: + 20%; ++ 50%; +++ 100%; − No effect; details: VCAM-1
T2 construct: human IL-8, (72 amino acids) (Cat. No. 200-08M); purchased PeproTech, Inc. 200-08M
T2 sequence (P10145 28-99): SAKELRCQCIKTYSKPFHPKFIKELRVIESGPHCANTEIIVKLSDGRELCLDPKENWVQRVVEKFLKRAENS

Eotaxin = biological target: T3, Eotaxin (Homo sapiens, UniProt P51671); assay: as above; type: cell-based
T3 construct: purchased PeproTech, Inc. 300-21
T3 sequence (P51671 24-97): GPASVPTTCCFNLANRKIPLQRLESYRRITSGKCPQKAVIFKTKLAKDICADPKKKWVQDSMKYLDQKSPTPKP

SDF-1α [1] = biological target: T4, SDF-1α (Homo sapiens, UniProt P48061); assay: as above; type: cell-based
T4 construct: purchased PeproTech, Inc. 300-28A
T4 sequence (P48061 22-89 limits assumed): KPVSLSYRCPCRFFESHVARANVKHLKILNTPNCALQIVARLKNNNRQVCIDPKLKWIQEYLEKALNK
Procedure: as §1, §2
Laminar flow assays were performed as follows. […] The number of adherent cells resisting detachment by the elevated shear forces was determined after each interval by analysis of videotaped cell images, and was expressed as the percent of originally settled cells. […]

SDF-1α [2] = biological target: T4, SDF-1α; assay: ELISA analysis of the synthetic chemokine-binding peptide; details: chemokine-coated wells, specific binding = at least two fold of binding to control proteins (BSA, Actin, Fibronectin)
Procedure: (§3) Recombinant chemokines were ordered from PeproTech, Inc. (Rocky Hill, N.J., USA). Human SDF-1α (Cat. No. 300-28A), human MIG (Cat. No. 300-26) and human IL-8, (72 amino acids) (Cat. No. 200-08M), belong to the alpha-chemokines (C-X-C) family. Human MCP-1 (MCAF) (Cat. No. 300-04) and human Eotaxin (Cat No. 300-21) belong to the beta-chemokines (C-C family). All chemokines were prepared according to the company recommendations.
(§4) Peptides were synthesized in the Weizmann Institute of Science, Rehovot, Israel, in order to perform tests for characterization of their influence on the biological activity of the chemokines. The format of the various synthesized peptides was as follows: The cyclic peptides, ACX7CGGGSK-biotin-G and the linear peptides, X12GGGSK-biotin-G. The peptides were biotinylated on their C-termini; the biotin will serve as a detector during the following experiments. Each synthetic peptide was dissolved to concentration of 1 mg/ml (˜0.6 mM) in 4% DMSO (Dimethyl Sulphoxide, Sigma, Cat. # D-2650).
(§5) NUNC-Immuno™ MaxiSorp™ plates (Cat. No. 4-42404) were coated with the appropriate chemokine (0.1 ml/well, 0.1-1.0 μg/ml in 0.1 M NaHCO3, pH 8.6), overnight at 4° C. The plates were then blocked with 0.2 ml/well of blocking buffer (5 mg/ml BSA in 0.1 NaHCO3). Control wells were treated with blocking buffer alone, with no addition of target protein (chemokine). The plates were washed 6 times with PBST (0.1% Tween 20 in PBS), followed by incubation for 45 minutes at room temperature with 10-fold serial dilutions of individual synthetic peptides (10pg-10 μg) with 1% BSA (PBST-BSA)/well. After the plates were washed 6 times with PBST, the bound peptides were probed by HRP-SA Conjugate, diluted 1:10,000 to 1:20,000 in PBST-BSA, 0.1 ml/well for 45 minutes at room temperature. The target-bound synthetic peptides probed with HRP-SA were quantified by DAKO TMB one-step substrate system, followed by the addition of stop solution, HCl—H2SO4 mixture (0.1 ml/well) (1N HCl, 3N H2SO4). The results were analyzed by ELISA reader at OD450.
The present invention identifies chemokine-binding peptides with biological activity. The binding specificities of the various peptides to the chemokines were determined by screening against BSA, Actin and Fibronectin-coated wells as negative controls in parallel experiments. The binding level of the peptides to the various chemokines, which reached at least two fold of the binding level to the control proteins, was considered a specific binding.
The specific binding of the peptides was detected by screening methodology, using ELISA, as described in “Materials and Methods”, employing microplates coated with the various chemokines to be checked. The binding specificities of the various peptides to the various chemokines were determined by screening against BSA, Actin and Fibronectin-coated wells as negative controls in parallel experiments.
Again, the specificity of the binding, either to one chemokine or more, was established by comparing binding level with the control binding level to non-related proteins, (shown in the Figure as a broken line).

[3] = tested on: chemokines MCP-1, SDF-1α, MIG, Eotaxin and IL-8; assay: ELISA binding to the panel of chemokines (chemokine not singled out); set-up: species or system human; details: five chemokines tested, control binding level = one fold
Procedure: as §3, §4, §5
The present invention identifies chemokine-binding peptides with biological activity. The binding specificities of the various peptides to the chemokines were determined by screening against BSA, Actin and Fibronectin-coated wells as negative controls in parallel experiments. […]
The specific binding of the peptides was detected by screening methodology, using ELISA, as described in “Materials and Methods”, employing microplates coated with the various chemokines to be checked. The binding specificities of the various peptides to the various chemokines were determined by screening against BSA, Actin and Fibronectin-coated wells as negative controls in parallel experiments. […]

[4] = T cell adhesion under flow, VCAM-1

Sequence	Reduction of the activity of MIG (MIG)	Level of Effect (IL-8; Chemokine checked IL-8, T cells, peptide 10 μg/ml)	Abolishment of the activity of IL-8 (IL-8; T cell adhesion under flow)	Kind of Effect (Eotaxin; Chemokine checked EOTAXIN)	Level of Effect (Eotaxin; Chemokine checked Eotaxin, T cells, VCAM-1, peptide 10 μg/ml)	Blocking of the activity of Eotaxin (Eotaxin; [4]) [%]	Kind of Effect (SDF-1α [1]; Chemokine checked SDF-1α)	Level of Effect (SDF-1α [1]; Chemokine checked SDF-1α, T cells, VCAM-1, peptide 10 μg/ml)	Blocking of the activity of SDF-1α (SDF-1α [1]; [4])	Bound chemokines (at least): SDF-1α (SDF-1α [2])	Binding to the various chemokines [3]
QIPQMRILHPYG [BKT-P23]	no effect	−	no effect	Antagonist	+++ (+++ 100%)	100	Antagonist	+ (+ 20%)	about 20%		
SQTLPYSNAPSP [BKT-P1]										bind and found to bind SDF-1α	bind specifically to various chemokines; also recorded: specifically to more than one chemokine
